Assay results as given in patent US20230256092A1 (SHIONOGI, published 2023).
Substitutions are numbered along the chain they refer to. Numbers in names are those of the source. Like-named read-outs stand apart in the source and are kept apart here. Values belong to the binder of their own block, whether it stands above or below them.

Columns and labels:
[1] = biological target: T1, loop3 hCCR4-hCCR8 (human, UniProt P51685 1-355); test: FCM, Expi293 transfectants; blank cell = same binding activity as wild-type hCCR8
T1 construct: chimera on Expi293 cells; hCCR8 264-280 replaced

[2] = biological target: T2, human CCR8 (human, UniProt P51685 1-355); test: cell-based or functional assay
[3] = biological target: T2, human CCR8; test: cell-based or functional assay; remark: listed apart in the source
[4] = biological target: T3, hCCR8 (Y17A) (human, UniProt P51685 1-355); test: flow cytometry on Expi293 transfectants
T3 construct: also called mutant in which Y at position 17 of human CCR8 is substituted for A

[5] = biological target: T4, human CCR4 (human, UniProt P51679 1-360); test: flow cytometry on Expi293 transfectants
T4 construct: full length, on Expi293 cells; also called hCCR4
T4 sequence: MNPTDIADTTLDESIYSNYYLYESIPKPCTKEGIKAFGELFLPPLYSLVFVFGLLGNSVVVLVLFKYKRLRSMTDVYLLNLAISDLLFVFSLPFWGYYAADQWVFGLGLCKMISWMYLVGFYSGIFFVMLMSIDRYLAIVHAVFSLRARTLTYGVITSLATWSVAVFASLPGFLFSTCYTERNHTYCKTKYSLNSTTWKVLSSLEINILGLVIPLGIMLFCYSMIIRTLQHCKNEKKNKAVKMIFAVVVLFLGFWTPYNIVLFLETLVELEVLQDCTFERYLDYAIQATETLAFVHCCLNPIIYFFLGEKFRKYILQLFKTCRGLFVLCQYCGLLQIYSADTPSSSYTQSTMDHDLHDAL

[6] = biological target: hCCR8 (K35A) (human, UniProt P51685 1-355); test: flow cytometry on Expi293 transfectants
[7] = biological target: T5, mouse CCR8 (mouse, UniProt P56484 1-353); test: flow cytometry on Expi293 transfectants
T5 construct: full length, on Expi293 cells; also called mCCR8
T5 sequence: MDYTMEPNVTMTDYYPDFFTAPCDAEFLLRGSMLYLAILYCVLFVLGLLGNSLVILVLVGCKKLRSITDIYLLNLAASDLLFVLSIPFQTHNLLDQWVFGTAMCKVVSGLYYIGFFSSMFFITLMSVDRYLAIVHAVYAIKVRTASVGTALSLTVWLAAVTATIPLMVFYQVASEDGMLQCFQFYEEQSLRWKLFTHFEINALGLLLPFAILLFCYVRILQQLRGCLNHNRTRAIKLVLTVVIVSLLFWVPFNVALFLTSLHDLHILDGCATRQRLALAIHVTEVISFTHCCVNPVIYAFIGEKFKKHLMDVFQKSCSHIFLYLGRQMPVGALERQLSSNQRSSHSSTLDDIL

[8] = biological target: T6, N-ter hCCR4-hCCR8 (human); test: flow cytometry on Expi293 transfectants
T6 construct: chimera on Expi293 cells; also called human CCR8 with the N-terminal region substituted with that of human CCR4
T6 chain: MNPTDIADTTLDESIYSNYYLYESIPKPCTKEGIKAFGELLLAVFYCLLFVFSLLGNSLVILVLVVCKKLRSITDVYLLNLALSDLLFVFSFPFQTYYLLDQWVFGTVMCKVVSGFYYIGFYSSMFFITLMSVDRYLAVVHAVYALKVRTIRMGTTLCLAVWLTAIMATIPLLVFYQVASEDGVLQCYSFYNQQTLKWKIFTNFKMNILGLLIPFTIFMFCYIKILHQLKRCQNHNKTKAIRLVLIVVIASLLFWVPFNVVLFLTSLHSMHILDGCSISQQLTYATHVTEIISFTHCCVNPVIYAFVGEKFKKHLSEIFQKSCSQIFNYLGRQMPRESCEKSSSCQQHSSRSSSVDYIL

[9] = biological target: T7, loop2 hCCR4-hCCR8 (human, UniProt P51685 1-355); test: FCM, Expi293 transfectants; Δ = significantly reduced binding activity vs wild-type hCCR8
T7 construct: chimera on Expi293 cells; hCCR8 172-202 replaced; also called loop2-human CCR4-substituted human CCR8

[10] = biological target: T8, loop1 hCCR4-hCCR8 (human, UniProt P51685 1-355); test: as above
T8 construct: chimera on Expi293 cells; hCCR8 94-107 replaced; also called loop1-human CCR4-substituted human CCR8

[11] = biological target: T8, loop1 hCCR4-hCCR8; test: flow cytometry on Expi293 transfectants
[12] = biological target: T2, human CCR8; test: cell-based or functional assay; remark: listed apart in the source
[13] = biological target: T2, human CCR8; test: cell-based or functional assay; remark: listed apart in the source
[14] = biological target: T2, human CCR8; test: cell-based or functional assay; remark: listed apart in the source
[15] = biological target: T2, human CCR8; test: cell-based or functional assay; remark: listed apart in the source

binding result [1]: binds
IC50 (nM), Ca2+ influx by 200 nM hCCL1 [2]: 0.36 nM
Neutralizing activity IC50 (nM), Ca2+ influx by 100 nM hCCL1 [3]: 0.32 nM
binding result [4]: no binding
binding result [5]: no binding
binding result [6]: no binding
binding result [7]: no binding
binding result [8]: no binding
binding result [9]: binds
binding result [10]: binds
B1: 1H4 (antibody, V domains shown)
VH: EVQLVESGGRLVQPKGSLKLSCAASGFTFNTYAMYWIRQAPGKGLEWVARIRSKSNNYATYYADSVKDRFTISRDDSQSMLYLQMNNLKTEDTAMYYCVRARFYYSDYGYAMDYWGQGTSVTVSS
VL: DIVMTQAAPSVPVTPGESVSISCRSSKSLLHSNGNTYLYWFLQRPGQSPQLLIYRMSNLASGVPDRFSASGSGTAFTLRISRVEAEDVGVYYCMQHLEYPLTFGAGTKLELKR
notes: mouse hybridoma antibody, purified

IC50 ratio (WT IC50/mutant IC50) [14]: 1 ratio
IC50 (nM), Ca2+ influx by 200 nM hCCL1 [12]: 0.17 nM
B5: h10A11 (IGKV4-1/IGHV3-73) (antibody, V domains shown)
VH: EVQLVESGGGLVQPGGSLKLSCAASGFAFNTYALYWVRQASGKGLEWVGRIRSKSNNYATYYADSVKDRFTISRDDSKNTAYLQMNSLKTEDTAVYYCTRARFYYSDYGYAMDYWGQGTLVTVSS
VL: DIVMTQSPDSLAVSLGERATINCRSSKSLLHSNGNTYLYWYQQKPGQPPKLLIYRMSNLASGVPDRFSGSGSGTDFTLTISSLQAEDVAVYYCMQHLEYPLTFGQGTKLEIKR

binding result [1]: binds
IC50 (nM), Ca2+ influx by 200 nM hCCL1 [2]: 1.19 nM
Neutralizing activity IC50 (nM), Ca2+ influx by 100 nM hCCL1 [3]: 0.4 nM
binding result [4]: no binding
binding result [5]: no binding
binding result [7]: no binding
binding result [11]: no binding
binding result [8]: no binding
binding result [9]: binds
B6: 2C7 (antibody, V domains shown)
VH: QVQLKQSGPSLVQPSQSLSITCTVSGFSLTAYGVHWIRQSPGKGQEWLGVIWRGGSTDYNAAFMSRLTITKDNSKSQVFFKMNSLQADDTAIYYCAKKGGSYAMDYWGQGTSVTVSS
VL: DVVLTQTPLSLPVSLGGQASISCRSSQSLVHSNGNTYLHWYLQKPGQSPKLLIYKVSNRFSGVPDRFSGSGSGTDFTLKISRVEAEDLGVYFCSQSTQVPLTFGAGTKLELKR
notes: as for B1

Further lines, the binder ahead of its results:

B2: 8F7 (antibody, V domains shown)
VH: EVQLVESGGRLVQPKRSLKLSCAASGFTFNPYAMYWIRQAPGQGLEWVARIRSKSNNYATYYADSVKDRFTISRDDSQSMLYLQMNNLKTEDTAMYYCVRGHQGTMDYWGQGTSVTVSS
VL: B1 VL with I53T, A69G, L101F, A105G, L111I
notes: as for B1
binding result [1]: binds
IC50 (nM), Ca2+ influx by 200 nM hCCL1 [2]: 3.03 nM
Neutralizing activity IC50 (nM), Ca2+ influx by 100 nM hCCL1 [3]: 1.56 nM
binding result [4]: no binding
binding result [5]: no binding
binding result [7]: no binding
binding result [11]: no binding
binding result [8]: no binding
binding result [9]: binds

B3: 10A11 (antibody, V domains shown)
VH: B1 VH with T28A, M34L
VL: B1 VL with A69G
notes: mouse hybridoma antibody, purified; also called m10A11
binding result [1]: binds
IC50 (nM), Ca2+ influx by 200 nM hCCL1 [2]: 0.23 nM
Neutralizing activity IC50 (nM), Ca2+ influx by 100 nM hCCL1 [3]: 0.08 nM
IC50 (nM), Ca2+ influx by 200 nM hCCL1 [12]: 0.23 nM
binding result [4]: no binding
binding result [5]: no binding
binding result [7]: no binding
binding result [8]: no binding
binding result [9]: binds
binding result [10]: binds

B4: h10A11 (IGKV4-1/IGHV3-15 T94R) (antibody, V domains shown)
VH: B5 VH with G10A, Q13K, K19R, A28T, N30S, S41P, A81L
VL: B5 VL
IC50 ratio (WT IC50/mutant IC50) [13]: 1 ratio
IC50 (nM), Ca2+ influx by 200 nM hCCL1 [12]: 0.15 nM

B7: h19D7 (IGKV2-18/IGHV3-73) (antibody, V domains shown)
VH: EVQLVESGGGLVQPGGSLKLSCAASGFTFSTYAMYWVRQASGKGLEWVGRIRSKSNNYATYYADSVKDRFTISRDDSKNTAYLQMNSLKTEDTAVYYCTRGGYGNYRYAMDYWGQGTTVTVSS
VL: DIVMTQTPPSLPVNPGEPASISCRSSKSLLHSNGNTYLYWYLQKPGQSPQLLIYRVSNLASGVPDRFSGSGSGSDFTLKISWVEAEDVGVYYCMQHLEYPFTFGQGTKLEIK
IC50 (nM), Ca2+ influx by 200 nM hCCL1 [15]: 0.46 nM
